Experimental data taken from US7252997.

What was measured:
[1] = biological target: Wild-type AAV2 capsid (adeno-associated virus serotype 2 (AAV2)) (UniProt P03135); test: capsid ELISA with A20 MAb on purified virus stock
[2] = biological target: AAV2 capsid mutant I-587 (P1 peptide inserted after amino acid 587, VP1 numbering) (adeno-associated virus serotype 2 (AAV2)) (UniProt P03135); test: capsid ELISA with A20 MAb on purified virus stock

A20 monoclonal antibody
titer with A20 capsid ELISA [1]: 6e+12 particles/ml | titer with A20 capsid ELISA [2]: 3e+12 particles/ml
